Measurements reported in the nanobody polyreactivity screen of Harvey et al. (2022).

test: yeast display, Sf9 membrane polyspecificity reagent, FACS + sequencing; frameworks hold sequencing errors
Outline: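 Sorting gates, low and high (top ~1%), were placed on anti-HA fluorescence to track expression and on streptavidin fluorescence to track reagent binding. A clone's polyreactivity label is taken from the gate it came out of. The reagent was 10% biotinylated, detergent-solubilized Sf9 membrane, applied for 1 hour at 4 °C to galactose-induced yeast display cells.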

| Sequence | polyreactivity (PSR sort gate) |
| --- | --- |
| QVQLVESGGGLVQAGGSLRLSCAASGRTFLYYAMGWYRQAPGKERELVAAISSGGSTNYADSVKGRFTISRDNAKNTVYLQMNSLIPEDTAVYDCNADYTSRETSDVIYEYDYWGQATQVTVSS | low polyreactivity |
| QVQLVESGGGLVQAGGSLRLSCAASGRTFLYYAMGWYRQAPGKERELVAGITSGGSTNYADSVKGRFTISRDNAKNTVYLQMNSLKPEETAVYYCAARYFPRIQYGRKGYDYWGQGTQVTVSS | low polyreactivity |
| QVQLVESGGGLVQAGGSLRLSCAASGRTFLYYAMGWYRQAPGKERELVARITLDGGSTNYADSVKGRFTISRDNAKNTVYLQMNSLKPEDTAVYYCAAQRGGPFPRVVDLYDYWGQGTQVTVSS | low polyreactivity |
| QVQLVESGGGLVQAGGSLRLSCAASGRTFLYYAMGWYRQAPGKERELVAVISRDGGSTYYADSVKGRFTISRDNAKNTVYLQMNSLKPEDTAVYYCAKRYGWASGYWNSNYGYLYDYWGQGTQVTVSS | high polyreactivity |
| QVQLVESGGGLVQAGGSLRLSCAASGRTFNHYAMGLYRQAPGKERELVAGITISGGSTYYADSVKGRFTISRDNAKNTVYLQMNSLKPEDTAVYYCNAVYEYYRHSKWTMDYWGQGTQVTVSS | low polyreactivity |
| QVQLVESGGGLVQAGGSLRLSCAASGRTFNIYDMGGYIPAPGTERELVAAITGRGTGTYYADSVKGRFTISRDNAKNTVYLQMNSLKPEDTAVYFCAAVRRWYYPALSEHDYWGQGTQVTVSS | low polyreactivity |
| QVQLVESGGGLVQAGGSLRLSCAASGRTFNLYAMGWYRQAPGKERELVAAIRYSDTSTYYADSVKGRFTISRDNAKNTVYLQMNSVKPEDTAVYYCAAYPGYKGGNYGYWGQGTKVTVSS | low polyreactivity |
| QVQLVESGGGLVQAGGSLRLSCAASGRTFNPYAMGWYRQAPGKERELVAAIRWRGTRTYYADSVKGRFTISRDNAKNTVYLQMNSLKPEDTAVYYCNALLGYYRWRRPVDYSYGSWGQGTQVTVSS | high polyreactivity |
| QVQLVESGGGLVQAGGSLRLSCAASGRTFNQYAMGWYRQAPGKERELVAAISRRTGRTYYADSVKGRFTISRDNAKNTVYLQMNSLKPEDTAVYYCNTLYFVGPDYGYDYWGQGTQVTVSS | high polyreactivity |
| QVQLVESGGGLVQAGGSLRLSCAASGRTFNVYAMGWYRQAPGKERELVASISSSDTTNYADSVKGRFTISRDNAKNTVYIQMNSLKPEDTAVYYCAADYTPDLLSKVDYWGQGTQVTVSS | low polyreactivity |
| QVQLVESGGGLVQAGGSLRLSCAASGRTFNVYAMGWYRQAPGKERELVAVITNGGSTNYADSVKGRFTISRDNAKNTVYLQMNSLKPEDTAVYYCAGDYYASLTREDRDDYWGQGTQVTVSS | low polyreactivity |
| QVQLVESGGGLVQAGGSLRLSCAASGRTFNYYAMGWYRQAPGKERELVAAISTSGGSTYYADSVKGRFTISRDNAKNTVYLQMNSLKPEDTAVYYCNAVYRVWYAEWSTVGSPHDYWGQGTQVTVSS | low polyreactivity |
| QVQLVESGGGLVQAGGSLRLSCAASGRTFNYYNMGWYRQAPGKARELVAAISRGGTTYYADSVKGRFTISRDNAKKTVYLQMNSLKPEDTAVYYCAVAYAPRVQTVWSYVSGSTYYSSGQGTQVTVSS | high polyreactivity |
| QVQLVESGGGLVQAGGSLRLSCAASGRTFNYYNMGWYRQAPGKERELVAAISRGGTTYYADSVKGRFTISRDNAKKTVYLQMNSLKPEDTAVYYCAVAYAPRVQTVWSYVSGSTYYSWGQGTQVTVSS | high polyreactivity |
| QVQLVESGGGLVQAGGSLRLSCAASGRTFPAYAMGWYRQAPGKERELVAAISYSGGRTRYADSVKGRFTISRDNAMNSVYLQMNSLKPEDTAVYFCNRVIPTQSLRDYYWGQGTQVTVSS | high polyreactivity |
| QVQLVESGGGLVQAGGSLRLSCAASGRTFPDNAMGWYRQAPGKESEFVAAISSSGSTYYADSVKGRFTISRDNAKNTVYLQMNSLKPEDTAVYYCNRDDWPSYDFTGGDYWGQGTQVTVSS | low polyreactivity |
| QVQLVESGGGLVQAGGSLRLSCAASGRTFPDYAMGWYRQAPGKERELVARISYSGGSTSYADSVKGRFTISRDNAKNTVYLQMNSLKPEDTAVYYCNRETAYAVGRFEYCGQGTQVTVSS | low polyreactivity |
| QVQLVESGGGLVQAGGSLRLSCAASGRTFPFNAMGWYRQAPGKERELVAAIRWSGGSTYYADSVKGRFTISRDNAKNTVYLQMNSLKPEDTAVYYCAAVYPKIRSYRYGYWGQGTQVTVSS | high polyreactivity |
| QVQLVESGGGLVQAGGSLRLSCAASGRTFPGNAMGWYRQAPGKERELVAAINSRGSTYYADSVKGRFTISRDNAKHTVYLKMNSLKPEDTAVYYSAAYFGHYWRYYYWGQGTQVNVSS | high polyreactivity |
| QVQLVESGGGLVQAGGSLRLSCAASGRTFPGNAMGWYRQAPGKERELVAAISWSGTRTYYADSVKGRFTISRDNAKHTVYLQMNSLKPEDTAVYYCNVVVKGAWDYYPYDYWGQGTQVTVSS | high polyreactivity |
| QVQLVESGGGLVQAGGSLRLSCAASGRTFPGNDMGWYRQAPGKERELDAAISSDDSTYYADSVKWRFTMSRDNAKNTVYLKMNSLKPEDTAVYYCNAEYYEGYIGVPGSYWPYEYWGQGTQVTVSS | low polyreactivity |
| QVQLVESGGGLVQAGGSLRLSCAASGRTFPGYAMGWYRQAAGTERELVAGISYRGGSTYYADSVKGRFTISRDNAKNTVYLQMNSLKPEDTAVYYCARDYSRHKGDYWGQGTQVTVSS | low polyreactivity |

| Sequence | polyreactivity (PSR sort gate) |
| --- | --- |
| QVQLVESGGGLVQAGGSLRLSCAASGRTFPGYAMGWYRQAPGKERELVAGISYRGGSTYYADSVKGRFTISRDIAKNTVYLQMNSLKPEDTAVYYCAREYSRHKGDYWGQGTQVTVSS | low polyreactivity |
| QVQLVESGGGLVQAGGSLRLSCAASGRTFPINAMGWYRQAPGKERELVASIRWTDGTTYYADSVKGRFTISRDSAKNTVYLQMNSLKPEDTAVFYCAADAEGSASKYDYWGQGTQVTVSS | low polyreactivity |
| QVQLVESGGGLVQAGGSLRLSCAASGRTFPIYAMGWYRQAPGKERELVATITWNDGNTYYADSVKGRFTISRDNAKNTVYLQMNSLKPEDTAVYYCAAKGGWPWHYHYQKNSEYDYWGQGTQVTVSS | low polyreactivity |
| QVQLVESGGGLVQAGGSLRLSCAASGRTFPLNAMGWYRQAPGKERELVASITKSTGNTRYADSVKGRFTISRDNAKNTVYLQMNSLKPEDTAVYYCAARSYRDRYYWGQGTQVTVSS | high polyreactivity |
| QVQLVESGGGLVQAGGSLRLSCAASGRTFPNNAMGWYRQAPGKERELVAVITWSGGSTYYADSVKGRFTISRDNAKNTVYLQMNSLKPEDTAVYYCATDYTGKWKDHYYYWGQGTQVTVSS | low polyreactivity |
| QVQLVESGGGLVQAGGSLRLSCAASGRTFPRNGMGWYRQAPGKERELVAAISWSGGRTYYADSVKGRFTISRDNAKNTVYLQMNSLKPEDTAVYYCNALYFRKAGYWGKGTQVTVSS | high polyreactivity |
| QVQLVESGGGLVQAGGSLRLSCAASGRTFPSNVMGWYRQAPGKEREFVAAITTRGGNTRYADSVKGRFTISRDNAKNTVYLQMNSLKPEDTAVYYCAAKVKPGYDYWGQGTQVTVSS | low polyreactivity |
| QVQLVESGGGLVQAGGSLRLSCAASGRTFPSYTMGWYRQAPGKERELVAAISKSGGNTYYADSVKGRFTISRDNAKNTVYLQMNSLKPEDTAVYYCNADTYALGAAVIPGDEYWGQGTQVTVSS | low polyreactivity |
| QVQLVESGGGLVQAGGSLRLSCAASGRTFPVNAMGWYRQAPGKERELVAAIRRRGGSTYYADSVKGRFTISRDNAKNTVYLQMNSRKPEDTAVYYCAADKSSSFSYSYGYWGHGTQVTVSS | low polyreactivity |
| QVQLVESGGGLVQAGGSLRLSCAASGRTFPVYAMGWYRQAPGKERELVATIRRRDGSTYADSVKGRFTISRDNAKNTVYLQMNSLKPEDTAVYYCNAAYSQATPWYYAWYDYCGQGTQVTVSS | high polyreactivity |
| QVQLVESGGGLVQAGGSLRLSCAASGRTFPWYTMGWYRQAPGKERELVAAITRSSGSAYYADSVKGRFTISRDTAKNPVYLQMNSLKQEDTAVYYCAARYWVAGFRGRPYDYWGQGTQVTVSS | high polyreactivity |
| QVQLVESGGGLVQAGGSLRLSCAASGRTFPWYVMGWYRQAPGKERELVAAISSGGGKYYADSVKGRFTISRDNAKNTVFLQMNSLKPEDTAVYYCAGRLYYRRSFVREMYYWGQGSQVTVSS | high polyreactivity |
| QVQLVESGGGLVQAGGSLRLSCAASGRTFPYKAMGWYRQAPGKERELVAVISSGGGRTYYADSVKGRFTISRDNAKNTVYLQMNSLKPEDTAVYYCNKGGYAIRYDYYWGQGTQVTVSS | high polyreactivity |
| QVQLVESGGGLVQAGGSLRLSCAASGRTFPYNAMGWYRQAPGKERELVAAITSSGGSTYYADSVKGRFTISRDNAKNTVYLQMNSLKPEDTAVYYCAKGYYSPNYYYWGQGTQVTVSS | high polyreactivity |
| QVQLVESGGGLVQAGGSLRLSCAASGRTFPYNVMGWYRQAPRKERELVARITRGGSTDYADSVKGRFTISRDNAKNTVYLLMNSLKPEDTAVYYCAAAIGHFERFYWGQGTQVTVSS | low polyreactivity |
| QVQLVESGGGLVQAGGSLRLSCAASGRTFPYYAMGWYRQAPGKERELVAAISSSGGSTYYADSVKGRFTISRDNAKNTVNLQMNSLKPEDTAVYYCAARAPYSYSGYGYWGQGTQVTVSS | high polyreactivity |
| QVQLVESGGGLVQAGGSLRLSCAASGRTFPYYAMGWYRQAPGKERELVATITRGGSTYYADSVKGRFTISRDNAKNTVYLQMNSLKPEDTAVYYCNADYWGHRFYFPGRRDYWGQGTQVTVSS | low polyreactivity |
| QVQLVESGGGLVQAGGSLRLSCAASGRTFQDYAMGWYRQAPGKERELVAVINSGGSTYYADSVKGRFTISRDNAKNTVYLQMNSLKPEDTAVYYCAKGYWFYPWYHGYYWGQGTQVTVSS | high polyreactivity |
| QVQLVESGGGLVQAGGSLRLSCAASGRTFQFYAMGWYRQAPGKERELVAAITSGGSTYYADSVKGRFTISRDNAKNTVYLQMNSLKPEDTAVYYCNAKYNGYYRRFSEYDYWGQGTQVTVSS | high polyreactivity |
| QVQLVESGGGLVQAGGSLRLSCAASGRTFQGYTMGWYRQAPGKERELVAAITGGVGSTYYADSVKGRFTISRDNAKNTVYLQMNSLKPEDTAVYYCNTVSYGYTDLYIFYTGYYYWGQGTQVTVSS | low polyreactivity |
| QVQLVESGGGLVQAGGSLRLSCAASGRTFQIYAMGWYRQAPGKERELVAAISRRGGSTYYADSVKGRFTISRDNAKNTVYLQMNSLKPEDTAVYYCNVVHWRGEYSYAGYDYWGQGTQVTVSS | high polyreactivity |
